Measurements: patent US20100260668A1 (published 2010)

Assays:
HGF-His tag = target: T1, HGF-His tag (UniProt P14210 32-728); assay: direct bind ELISA (C-term VD)
T1 construct: Bought antigen coated on the ELISA plate; not shown: His tag

VEGF 1-165 aa = target: T2, VEGF 1-165 aa (UniProt P15692 27-191); assay: direct bind ELISA (N-term VD);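 note: ELISA screen of antibodies for binding to plate-immobilized target antigen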
T2 construct: Bought antigen coated on the ELISA plate
T2 sequence (P15692 other isoform, or with tags, fused parts or gaps limits assumed): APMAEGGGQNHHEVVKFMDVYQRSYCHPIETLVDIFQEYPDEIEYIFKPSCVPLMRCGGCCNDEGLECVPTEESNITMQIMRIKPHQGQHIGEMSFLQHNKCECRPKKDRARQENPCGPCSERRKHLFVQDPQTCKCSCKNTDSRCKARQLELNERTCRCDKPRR
Protocol: Enzyme Linked Immunosorbent Assays to screen for antibodies that bind a desired target antigen were performed as follows. […] Plates were washed four times with PBS containing 0.02% Tween 20. Plates were blocked by the addition of 300 μL/well blocking solution (non-fat dry milk powder, various retail suppliers, diluted to 2% in PBS) for ½ hour at room temperature. Plates were washed four times after blocking with PBS containing 0.02% Tween 20.
Alternatively, one hundred microliters per well of 10 μg/ml of Histidine (His) tagged desired target antigen (R&D Systems, Minneapolis, Minn.) was added to ELISA plates coated with monoclonal mouse anti-polyHistidine antibody as described above and incubated for 1 hour at room temperature. Wells were washed four times with PBS containing 0.02% Tween 20.
Plates were washed 4 times with PBS containing 0.02% Tween 20.

T1 sequence (P14210 32-728 limits assumed): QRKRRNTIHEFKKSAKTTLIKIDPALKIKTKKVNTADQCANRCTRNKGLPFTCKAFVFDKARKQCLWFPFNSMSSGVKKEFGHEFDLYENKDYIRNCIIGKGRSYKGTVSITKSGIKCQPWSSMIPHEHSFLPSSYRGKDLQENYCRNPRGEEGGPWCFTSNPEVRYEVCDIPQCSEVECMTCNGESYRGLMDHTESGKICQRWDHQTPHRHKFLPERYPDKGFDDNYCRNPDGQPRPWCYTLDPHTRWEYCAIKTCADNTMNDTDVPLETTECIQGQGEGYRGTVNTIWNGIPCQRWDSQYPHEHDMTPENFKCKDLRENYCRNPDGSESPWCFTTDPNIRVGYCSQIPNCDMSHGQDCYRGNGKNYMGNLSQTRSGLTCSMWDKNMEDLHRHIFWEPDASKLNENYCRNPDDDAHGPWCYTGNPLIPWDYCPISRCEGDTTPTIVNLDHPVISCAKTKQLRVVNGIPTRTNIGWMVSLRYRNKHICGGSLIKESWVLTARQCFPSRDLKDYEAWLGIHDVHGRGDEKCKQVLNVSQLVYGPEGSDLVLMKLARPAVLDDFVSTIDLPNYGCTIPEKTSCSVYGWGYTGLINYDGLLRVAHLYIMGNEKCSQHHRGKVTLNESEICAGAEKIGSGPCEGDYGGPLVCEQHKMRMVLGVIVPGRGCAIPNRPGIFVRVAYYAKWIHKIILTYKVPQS

B1: DVD670 (bispecific antibody, human IgG1, kappa)
heavy: not shown
light: DIQMTQSPSSLSASVGDRVTITCRASQVIRRSLAWYQQKPGKAPKLLIYAASNLASGVPSRFSGSGSGTDFTLTISSLQPEDFATYYCQQSNTSPLTFGQGTKVEIKRTVAAPSVFIFPPDIQMTQSPSSLSASVGDRVTITCKASENVVSYVSWYQQKPGKAPKLLIYGASNRNTGVPSRFSGSGSGTDFTLTISSLQPEDFATYYCGQSYNYPYTFGQGTKLEIKRTVAAPSVFIFPPSDEQLKSGTASVVCLLNNFYPREAKVQWKVDNALQSGNSQESVTEQDSKDSTYSLSSTLTLSKADYEKHKVYACEVTHQGLSSPVTKSFNRGEC
notes: DVD-Ig; N-term VD AB071 (VEGF), C-term VD AB079 (HGF); HC linker long, LC linker long; vectors V1/V2
With B1 the EC50 (HGF-His tag) was 3.1 nM and the EC50 (VEGF 1-165 aa) was 48.3 nM.

B2: DVD656 (bispecific antibody, human IgG1, kappa)
heavy: not shown
light: DIQMTQSPSSLSASVGDRVTITCRASQDVSTAVAWYQQKPGKAPKLLIYSASFLYSGVPSRFSGSGSGTDFTLTISSLQPEDFATYYCQQSYTTPPTFGQGTKVEIKRTVAAPSVFIFPPDIQMTQSPSSVSASVGDRVTITCRASQGISSWLAWYQQKPGKAPNLLIYEASSLQSGVPSRFGGSGSGTDFTLTISSLQPEDFATYYCQQANGFPWTFGQGTKVEIKRTVAAPSVFIFPPSDEQLKSGTASVVCLLNNFYPREAKVQWKVDNALQSGNSQESVTEQDSKDSTYSLSSTLTLSKADYEKHKVYACEVTHQGLSSPVTKSFNRGEC
notes: DVD-Ig; HC linker short, LC linker long; vectors V1/V2
Work on B2 yielded an EC50 (HGF-His tag) of 1.27 nM and an EC50 (VEGF 1-165 aa) of 7.87 nM.

B3: DVD660 (bispecific antibody, human IgG1, kappa)
heavy: not shown
light: DIQMTQSPSSLSASVGDRVTITCSASQDISNYLNWYQQKPGKAPKVLIYFTSSLHSGVPSRFSGSGSGTDFTLTISSLQPEDFATYYCQQYSTVPWTFGQGTKVEIKRTVAAPDIQMTQSPSSLSASVGDRVTITCKASENVVSYVSWYQQKPGKAPKLLIYGASNRNTGVPSRFSGSGSGTDFTLTISSLQPEDFATYYCGQSYNYPYTFGQGTKLEIKRTVAAPSVFIFPPSDEQLKSGTASVVCLLNNFYPREAKVQWKVDNALQSGNSQESVTEQDSKDSTYSLSSTLTLSKADYEKHKVYACEVTHQGLSSPVTKSFNRGEC
notes: DVD-Ig; HC linker short, LC linker short; vectors V1/V2
Binder B3 has an EC50 (HGF-His tag) of 449 nM and an EC50 (VEGF 1-165 aa) of 1.51 nM.

B4: DVD672 (bispecific antibody, human IgG1, kappa)
heavy: not shown
light: B3 light
notes: DVD-Ig; HC linker long, LC linker short; vectors V1/V2
B4 was tested, and the EC50 (HGF-His tag) was 22.9 nM and the EC50 (VEGF 1-165 aa) was 16.1 nM.

B5: DVD664 (bispecific antibody, human IgG1, kappa)
heavy: not shown
light: DIQMTQSPSSLSASVGDRVTITCRASQVIRRSLAWYQQKPGKAPKLLIYAASNLASGVPSRFSGSGSGTDFTLTISSLQPEDFATYYCQQSNTSPLTFGQGTKVEIKRTVAAPDIQMTQSPSSLSASVGDRVTITCKASENVVSYVSWYQQKPGKAPKLLIYGASNRNTGVPSRFSGSGSGTDFTLTISSLQPEDFATYYCGQSYNYPYTFGQGTKLEIKRTVAAPSVFIFPPSDEQLKSGTASVVCLLNNFYPREAKVQWKVDNALQSGNSQESVTEQDSKDSTYSLSSTLTLSKADYEKHKVYACEVTHQGLSSPVTKSFNRGEC
notes: DVD-Ig; N-term VD AB071 (VEGF), C-term VD AB079 (HGF); HC linker short, LC linker short; vectors V1/V2
Binder B5 has an EC50 (HGF-His tag) of 80.9 nM and an EC50 (VEGF 1-165 aa) of 40.9 nM.

B6: DVD668 (bispecific antibody, human IgG1, kappa)
heavy: not shown
light: DIQMTQSPSSLSASVGDRVTITCRASQDVSTAVAWYQQKPGKAPKLLIYSASFLYSGVPSRFSGSGSGTDFTLTISSLQPEDFATYYCQQSYTTPPTFGQGTKVEIKRTVAAPSVFIFPPDIQMTQSPSSLSASVGDRVTITCKASENVVSYVSWYQQKPGKAPKLLIYGASNRNTGVPSRFSGSGSGTDFTLTISSLQPEDFATYYCGQSYNYPYTFGQGTKLEIKRTVAAPSVFIFPPSDEQLKSGTASVVCLLNNFYPREAKVQWKVDNALQSGNSQESVTEQDSKDSTYSLSSTLTLSKADYEKHKVYACEVTHQGLSSPVTKSFNRGEC
notes: DVD-Ig; HC linker long, LC linker long; vectors V1/V2
Work on B6 yielded an EC50 (HGF-His tag) of 20.2 nM and an EC50 (VEGF 1-165 aa) of 136 nM.

B7: DVD654 (bispecific antibody, human IgG1, kappa)
heavy: not shown
light: DIQMTQSPSSLSASVGDRVTITCSASQDISNYLNWYQQKPGKAPKVLIYFTSSLHSGVPSRFSGSGSGTDFTLTISSLQPEDFATYYCQQYSTVPWTFGQGTKVEIKRTVAAPSVFIFPPDIQMTQSPSSVSASVGDRVTITCRASQGISSWLAWYQQKPGKAPNLLIYEASSLQSGVPSRFGGSGSGTDFTLTISSLQPEDFATYYCQQANGFPWTFGQGTKVEIKRTVAAPSVFIFPPSDEQLKSGTASVVCLLNNFYPREAKVQWKVDNALQSGNSQESVTEQDSKDSTYSLSSTLTLSKADYEKHKVYACEVTHQGLSSPVTKSFNRGEC
notes: as for B2
B7 showed an EC50 (HGF-His tag) of 0.91 nM and an EC50 (VEGF 1-165 aa) of 3.71 nM.

B8: DVD662 (bispecific antibody, human IgG1, kappa)
heavy: not shown
light: DIQMTQSPSSLSASVGDRVTITCRASQDVSTAVAWYQQKPGKAPKLLIYSASFLYSGVPSRFSGSGSGTDFTLTISSLQPEDFATYYCQQSYTTPPTFGQGTKVEIKRTVAAPDIQMTQSPSSLSASVGDRVTITCKASENVVSYVSWYQQKPGKAPKLLIYGASNRNTGVPSRFSGSGSGTDFTLTISSLQPEDFATYYCGQSYNYPYTFGQGTKLEIKRTVAAPSVFIFPPSDEQLKSGTASVVCLLNNFYPREAKVQWKVDNALQSGNSQESVTEQDSKDSTYSLSSTLTLSKADYEKHKVYACEVTHQGLSSPVTKSFNRGEC
notes: as for B3
With B8 the EC50 (HGF-His tag) was 214 nM and the EC50 (VEGF 1-165 aa) was 70.2 nM.

B9: DVD674 (bispecific antibody, human IgG1, kappa)
heavy: not shown
light: B8 light
notes: as for B4
Binder B9 has an EC50 (HGF-His tag) of 17.6 nM and an EC50 (VEGF 1-165 aa) of 10.6 nM.

B10: DVD658 (bispecific antibody, human IgG1, kappa)
heavy: not shown
light: DIQMTQSPSSLSASVGDRVTITCRASQVIRRSLAWYQQKPGKAPKLLIYAASNLASGVPSRFSGSGSGTDFTLTISSLQPEDFATYYCQQSNTSPLTFGQGTKVEIKRTVAAPSVFIFPPDIQMTQSPSSVSASVGDRVTITCRASQGISSWLAWYQQKPGKAPNLLIYEASSLQSGVPSRFGGSGSGTDFTLTISSLQPEDFATYYCQQANGFPWTFGQGTKVEIKRTVAAPSVFIFPPSDEQLKSGTASVVCLLNNFYPREAKVQWKVDNALQSGNSQESVTEQDSKDSTYSLSSTLTLSKADYEKHKVYACEVTHQGLSSPVTKSFNRGEC
notes: DVD-Ig; N-term VD AB071 (VEGF), C-term VD AB012 (HGF); HC linker short, LC linker long; vectors V1/V2
B10 was tested, and the EC50 (HGF-His tag) was 0.94 nM and the EC50 (VEGF 1-165 aa) was 28.7 nM.

B11: DVD666 (bispecific antibody, human IgG1, kappa)
heavy: not shown
light: DIQMTQSPSSLSASVGDRVTITCSASQDISNYLNWYQQKPGKAPKVLIYFTSSLHSGVPSRFSGSGSGTDFTLTISSLQPEDFATYYCQQYSTVPWTFGQGTKVEIKRTVAAPSVFIFPPDIQMTQSPSSLSASVGDRVTITCKASENVVSYVSWYQQKPGKAPKLLIYGASNRNTGVPSRFSGSGSGTDFTLTISSLQPEDFATYYCGQSYNYPYTFGQGTKLEIKRTVAAPSVFIFPPSDEQLKSGTASVVCLLNNFYPREAKVQWKVDNALQSGNSQESVTEQDSKDSTYSLSSTLTLSKADYEKHKVYACEVTHQGLSSPVTKSFNRGEC
notes: as for B6
B11 was tested, and the EC50 (HGF-His tag) was 14.7 nM and the EC50 (VEGF 1-165 aa) was 134 nM.
